Several values for one entry are separate records, joined by “and”; a condition that tells them apart may be missing. Equal values may be shown once.

Experimental findings from US20230296621A1 are described below.

Experiment [1] addresses S sensors L15 + S25: S(aa 328-533)-15aa-LgBiT and S(aa 328-533)-25aa-SmBiT (SARS-CoV-2).
The target of experiment [2] is N sensors LC2 + SC2: N(aa 44-257)-LgBiT and N(aa 44-257)-SmBiT (SARS-CoV-2). Kind of experiment: spLUC, antibody dilution 10000.
Experiment [3] deals with N sensors LC + SC: N(aa 44-180)-10aa-LgBiT and N(aa 44-180)-10aa-SmBiT (SARS-CoV-2). The experiment is described as follows: spLUC, antibody dilution 10000.
In experiment [4] the target is N sensors LC2 + SC2: N(aa 44-257)-LgBiT and N(aa 44-257)-SmBiT (SARS-CoV-2). Kind of experiment: spLUC, antibody dilution 1000000.
The target in experiment [5] is N sensors LN + SN: LgBiT-10aa-N(aa 44-257) and SmBiT-10aa-N(aa 44-257) (SARS-CoV-2). Kind of experiment: spLUC, antibody dilution 1000000.
The target of experiment [6] is N sensors LC + SC: N(aa 44-180)-10aa-LgBiT and N(aa 44-180)-10aa-SmBiT (SARS-CoV-2). The experiment is described as follows: spLUC, antibody dilution 1000000.
The target of experiment [7] is N sensors LC2 + SC2: N(aa 44-257)-LgBiT and N(aa 44-257)-SmBiT (SARS-CoV-2). Kind of experiment: spLUC, antibody dilution 100000.
Experiment [8] concerns the target N sensors LN + SN: LgBiT-10aa-N(aa 44-257) and SmBiT-10aa-N(aa 44-257) (SARS-CoV-2). Kind of experiment: spLUC, antibody dilution 100000.
The target of experiment [9] is N sensors LC + SC: N(aa 44-180)-10aa-LgBiT and N(aa 44-180)-10aa-SmBiT (SARS-CoV-2). Kind of experiment: spLUC, antibody dilution 100000.
Experiment [10] addresses N sensors LC2 + SC2: N(aa 44-257)-LgBiT and N(aa 44-257)-SmBiT (SARS-CoV-2). Kind of experiment: spLUC, antibody dilution 100.
The target of experiment [11] is N sensors LN + SN: LgBiT-10aa-N(aa 44-257) and SmBiT-10aa-N(aa 44-257) (SARS-CoV-2). Kind of experiment: spLUC, antibody dilution 100.
Experiment [12] concerns the target N sensors LC + SC: N(aa 44-180)-10aa-LgBiT and N(aa 44-180)-10aa-SmBiT (SARS-CoV-2). Kind of experiment: spLUC, antibody dilution 100.
Experiment [13] concerns the target N sensors LC2 + SC2: N(aa 44-257)-LgBiT and N(aa 44-257)-SmBiT (SARS-CoV-2). The experiment is described as follows: spLUC, antibody dilution 1000.
The target in experiment [14] is N sensors LN + SN: LgBiT-10aa-N(aa 44-257) and SmBiT-10aa-N(aa 44-257) (SARS-CoV-2). Kind of experiment: spLUC, antibody dilution 1000.
Experiment [15] addresses N sensors LC + SC: N(aa 44-180)-10aa-LgBiT and N(aa 44-180)-10aa-SmBiT (SARS-CoV-2). The experiment is described as follows: spLUC, antibody dilution 1000.

C105 Fab: the percent of signal competed in [1] came to 90%.

For the substance “rabbit polyclonal anti-N protein antibody (Sino Biological, Cat#: 40588-T62-50)”, the luminescence signal in [2] is 563 and 505; in experiment [3], 1030 and 694; in experiment [4], 332 and 281; in experiment [5], 138 and 104; in experiment [6] it was 598 and 600; in experiment [7], 475 and 327. Moreover, the luminescence signal in experiment [8] was 146 and 145; in experiment [9] it was 811 and 592; in [10], 9060 and 9420; in experiment [11], 1970 and 2200; in [12], 10900 and 10200; in experiment [13], 2910 and 2790. The luminescence signal in experiment [14] is 677 and 684; in [15], 4000 and 3560.
